Changes are numbered by the printed parent chain. One block for each binder: values may come before it.
Assays:
[1] = target: T1, NGAL rAg A119G displayed on yeast (human, UniProt P80188 21-198); test: flow cytometry, mAb titrated on yeast displaying NGAL
T1 construct: Yeast display AGA2 fusion as m5
T1 chain: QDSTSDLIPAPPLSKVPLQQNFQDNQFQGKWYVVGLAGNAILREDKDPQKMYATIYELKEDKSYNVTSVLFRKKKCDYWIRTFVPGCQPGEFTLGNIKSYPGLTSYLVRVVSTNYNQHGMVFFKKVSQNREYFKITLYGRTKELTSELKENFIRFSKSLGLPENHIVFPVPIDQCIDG
Method: (§1) The side chain of each of the NGAL rAg residues identified from the epitope selections was altered by site-directed mutagenesis to alanine to confirm the functional epitope (direct contact residues) of each NGAL mAb subclone.
(§2) The change in Gibbs free binding energy (ΔΔG_Ala-WT) was determined to assess the energetic impact of each alanine substitution for mAb binding. The change in Gibbs free binding energy upon alanine substitution was calculated using the following equation [2],
(§3) For these experiments, observed fluorescence (F) was used to solve for KD using equation [1]. The KD derived from equation [1] one was then used in equation [2] to derive the change in Gibbs free binding energy upon alanine substitution. The KD is read from the abscissa of each of the curves at the inflection point.

[2] = target: T2, human NGAL antigen (Neutrophil Gelatinase Associated Lipocalin) (human, UniProt P80188 21-198, biotin label in the hybridoma EIAs); test: SPR (BIAcore): mAb captured on anti-mouse Fc, 100 nM NGAL
T2 construct: also called NGAL-Bt; biotin labeled NGAL
Method: Using BIAcore, NGAL hybrid supernatants are evaluated for relative binding affinity to NGAL and grouped accordingly in NGAL binding epitope groups. The affinity assay was completed on a goat anti-mouse IgG Fc Capture Biosensor as follows. Flow cells were first equilibrated with a running buffer (hereinafter “Running Buffer”) that contains HBS-EP buffer spiked with 0.1% BSA and 0.1% CM-Dextran), at 10 μL/min. Next, 13 μL of supernatant was floated across individual flow cells capturing anti-NGAL antibody from the supernatant onto the biosensor, and with one flow cell being left blank as a reference flow cell. The flow cells then were washed for 5 minutes at 50 μL/min with Running Buffer, and 150 μL of NGAL antigen at a 100 nM concentration was injected across the chip followed by 5 minutes of Running Buffer. The relative binding kinetics, association and dissociation, were monitored via sensorgrams. The sensorgrams were analyzed using Scrubber 2.0 software (BioLogic Software Pty Ltd., Australia) to determine association and dissociation rates, as well as overall KD.

[3] = target: T3, NGAL rAg S14A displayed on yeast (human, UniProt P80188 21-198); test: flow cytometry, mAb titrated on yeast displaying NGAL
T3 construct: Yeast display AGA2 fusion as m5
T3 chain: T1 chain with S14A, G119A
Method: as §1, §2, §3

[4] = target: T4, NGAL rAg S158A displayed on yeast (human, UniProt P80188 21-198); test: as above
T4 construct: Yeast display AGA2 fusion as m5
T4 chain: T1 chain with G119A, S158A
Method: as §1, §2, §3

[5] = target: T5, NGAL rAg L159A displayed on yeast (human, UniProt P80188 21-198); test: as above
T5 construct: Yeast display AGA2 fusion as m5
T5 chain: T1 chain with G119A, L159A
Method: as §1, §2, §3

[6] = target: T6, NGAL rAg K15A displayed on yeast (human, UniProt P80188 21-198); test: flow cytometry, mAb titrated on yeast displaying NGAL; highest mAb concentration tested listed as KD
T6 construct: Yeast display AGA2 fusion as m5
T6 chain: T1 chain with K15A, G119A
From the text: as §1, §3

[7] = target: T7, NGAL rAg R109A displayed on yeast (human, UniProt P80188 21-198); test: as above
T7 construct: Yeast display AGA2 fusion as m5
T7 chain: T1 chain with R109A, G119A
From the text: as §1, §3

[8] = target: T3, NGAL rAg S14A displayed on yeast; test: flow cytometry titration of the mAb on yeast displaying the NGAL antigen, detection with GaM-PE, fractional binding
[9] = target: T4, NGAL rAg S158A displayed on yeast; test: as above
[10] = target: T8, wild-type NGAL antigen displayed on yeast (AGA2 fusion) (human, UniProt P80188 21-198); test: as above
T8 construct: also called WT

Kd [1]: 0.00783 nM | ΔKD (KD against KD of WT) [1]: 0.97 fold | ΔΔG Ala-WT [1]: -0.02 kcal/mol | Kd [2]: 0.155 nM | koff [2]: 7.28e-05 s⁻¹ | kon [2]: 468000 M⁻¹ s⁻¹
B1: anti-NGAL monoclonal antibody 1-2322-455 (antibody, V domains shown)
VH: EVQLVESGGGLVQPGGSLKLSCAASGFTFNNYYMSWVRQTPERRLEWVAYISSSGGSTYYSDSVRGRFTISRDTARNTLYLQMTSLKSEDTAMYYCARHFGDYSYFDYWGQGTTLTVSS
VL: DIQMTQSPASLSASVGETVTITCRASENFYSYLAWYQQKQGKSPQLLVYNAKTLAEGVPSRFSGSGSGTQFSLKINSLQPEDFGTYYCQHHYDIPLTFGAGTKLELKR

Kd [3]: 0.281 nM | ΔKD (KD against KD of WT) [3]: 1.38 fold | ΔΔG Ala-WT [3]: 0.19 kcal/mol | Kd [4]: 0.242 nM | ΔKD (KD against KD of WT) [4]: 1.19 fold | ΔΔG Ala-WT [4]: 0.1 kcal/mol | Kd [5]: 0.137 nM | ΔKD (KD against KD of WT) [5]: 0.67 fold | ΔΔG Ala-WT [5]: -0.23 kcal/mol | Kd [2]: 1.01 nM | koff [2]: 0.000272 s⁻¹ | kon [2]: 269000 M⁻¹ s⁻¹ | Kd [6]: > 5000 nM | Kd [7]: > 5000 nM | EC50 (read off the curve) [8]: ~0.3 nM | EC50 (read off the curve) [9]: ~0.2 nM | EC50 (read off the curve) [10]: ~0.2 nM
B2: anti-NGAL monoclonal antibody 1-903-430 (antibody, V domains shown)
VH: KIQLVQSGPELKKPGETVKISCKASGYTFTNYGMNWVKQAPGKGLKWMGWININTGEPTYAEEFKGRFAFSLETSATTAFLQINNLKNEDTATYLCARDSYSGGFDYWGQGTIVTVSS
VL: DIVMTQSPSSLSVSAGEKVTLSCKSSQSLLISGDQKNYLAWYQQKPGQPPKLLIYGASTRDSGVPDRFTGSGSGADFTLTISSVQAEDLAVYYCQNDHSFPPTFGAGTKLELKR

Source: US20090263894A1 (AbbVie / Abbott, published 2009)
